This data set concerns the molecule itself. The data set is described as follows: SEC; purified recombinant EtfABCX analysed by size exclusion chromatography; peaks assigned by mass; EtfABCX protomers to superdimer and super-tetramer.

“And” between values parts separate entries of the source, which are not always exact repeats. Identical values can stand only once.

B1: Thermotoga maritima EtfABCX holoenzyme (heterotetrameric protomer) (complex)
chain 1: MNVVVCIKQVPDTTNVRIDRKTNNLVREGVPSIINPDDERALELASQLKEKFGATVYVITMGPPQAKEALKDAIAFGLDEAVHLSDRTFAGADTLATTYTLYWGIKKIEERIGKIDLILTGKQAVDGDTGQVGPGLATRFGYALGAYVVRIEEIDPEKKEMVIVRRLDQGFEKIRLKLPAVLTITDELNKPRYADLPNLIRAIRYEPIVWTHKDLGLDPKKCGFFGSPTRVVSTNIPPARKGGDIISKNEDPEVAAEKLIEALKKFEAVRLVEALKPVLEGEKDE
chain 2: MSEKKIIFVLIEHHGGKAHPVSWELIGKARDLASKLENSEVWGVLLGEGLESVAKEAIQRGADKVLYVKNREFNTYVNYLYKKALVDMVRKYRPEIFLIGATLEGRELAGMVATELETGLTADCTGLDIIPDKKLLAMTRPTFGGNLMATIMCPDHRPQMATVRPGVMKELPPDPERTGEIIEEEYDLGTFDKLIEILETIPLQTQVNLEYAPVVVAGGKGVGGPEGFKKLKELADLLGGEVGASRAAVKAGWISPEHQVGQTGKTVRPVLYFACGISGAIQHVVGIKESEIIVAINIDEKAPIFDIADIGIVGDLHKVVPALTAKLRELLNKSGVKK
chain 3: MKIEFDVVVVGAGPSGLSCAYVLAKNGLKVAVVEKGEYPGSKNVMGGVLYVHPLKEIMPDFLEKAANSKALERNVIEQNLWLLGNEGVIKIGHRNVEWKENPNAFTVLRANFDRWFAQEVEKAGALIIPKTKVEDFLRNEKGEIAGVVTSRPKGEIHSKAVVIAEGVNPILTMKAGLRKEDLKPHMVAVAVKEVISVPEDVVNRVFGVEGNDGATIELLGSWSEGMFGMGFLYANRSSVSLGCGVLLEDLRKKKIKPYQLLENLKNHPVISDMLGEYRNNTMEYLAHLIPEGGYYAMPKVYGDRVLVCGDAAMLVNSIHREGSNHAITSGRLAAETLLEAFEKGDFSEKILKNYYLRLKESFILKDLEKYKDLMPTMEKNHQFVEIYPDLANDALKRFLQVDGTPKWDVQKQIADMVLSRRSLIGISLDLLRFWRAVR
chain 4: MRIEDKLYLNRYRTDEENPHLKIKDESICAEKCSDRPCVSCCPADVYEWTESGMEVKFEGCLECGTCRIVCPFGNIEWNYPRGNYGVLYKFG
Consider B1, for which the stoichiometry N (in general, the number of molecules, sites or subunits per partner or assembly) is 2 and 4.
